Data on eight molecules can be found in publication PMC11098746 (2024).

To fix the notation:
B1: 66 (protein)
chain: KIISCVIQKNPILHLWKIYSFQKCPHNYYCEQESLKKKKCPPNSIKTIYDGTINDCLCLPGYYLKGNIQTCIPCEKGSYKNTISNDACIKCPINFATLFETSKSVYDCVCRKGYYFSWNTNIDTNDIEKKNIYNNNINSIYRNKNEIKLIKELEEEYAFNVEKKRKNKHKFILHKKLNNRYRENIHKKQISLKRKIKFLNEQKEINNHLNFLHVNEILNIAFFNDNQNYIYKNKNKQENDANIEINPVSKQTSLHSNNIANKYMRNNFLQINEKLYINNANNNYNEYIHKAQCTKCPRKMFCPGYWLENYENEIHHPPIYCPKGSLILGTTIESTDIHKCICRKGYSINLAIKPNRNKNVNVNDNDNGNNNNNANNNNNNANGNSATLNNNNNMCVMCKEGYYKDVIDNSVCAGLCIEFSTSFKGSISKKQCFCTVGKYMIQDEKDENKCINCAKGSICIGGFKFKSLRELIKNQYYINLNIYDHSIPLPKKGYFATFQINHEDFKWKPLNSLHIEINNYEKGNIIITDKIILNVFHKKLHLINIGEKNKYDQADQGIYIKKNLNNNAFIHNNNNIKYIVEESKHLRDRTMANIPNEPILVNEKLEPIIYKNNFLMIDRIPDFHLCPISNRCMGTSSNLCFKGSEGYLCNNCANSYDVIHFRSQCIKCRKKKTEM
modifications: bait human Fc-tagged dimer
B2: 50 (protein)
chain: ANAFYVDNGQEMLIKEKEHYSSDSEHHKEESASIGNLNVFFPAENYHFSTYMGFDRRSFLPSNEIELEKMIGANFANEVKNYCSRQNVAQKIGDYLNIAFEYSRALEELRSEMILDFNKRKHLTNNADDTILHMIENAEKRKNDPNYKEAYENKDYANNANIFMNEYSNPLSTKYNKILKEYLCHLFVNNPGTKPLERLYYNSLALGELVEPIRNKFKSLASSTIDFNYEIHMASASNIYLLAHFLVLSLAYLSYNEYFTTGTKSFYSLPTILTANSDNSFFMLNEMCNIHYNPNKNFKKDITFIPIESRPKRTTTFYGERRLTCDLLELVLNAIMLININEINNVFSNNNVDGYENSLSFSHNAIRIFSKVCPKINNDNVLKCEFEESSLYNPKIIKNDASEKSSQKNLKKAFDLLRTYAEIEGHSAEGSTSPYYVSLILDDMKYNDFYKYTLWYEPRELIYGDIRGMQMKKKKKTKYIYNDFMKKSTQLKKKLIKNDLKYNLKSKGLVFLYAMIDKYGSILNKAQKAKVQFLNSASSIRYYLYLNKVIFKSAKTYLDIMKRVLEELQTSTNTPLKFLVRGNYIENINNIARNDNMFYANLFVLTALSRRDPVKDYYNDKRKMLSATLAEKFANSASMLIPHKLRKLVVSMKKGLLKKKLLTSLAKVKLLQHIPAHMLENIASSIRFTTHTIATMQIIQNAKYMSKHNFAQYDSKGMLARQIFTKGGFAEYADNLMAKWFSKGFEEYKREQIENFKMENSIDSELKDSEREDENDASEESAKKKLQDLQLEEREKMKKENSLLFNQADKWDQFINKELVRALGLWLEFNDNPANAASFVYKVVEDSKHLLENNIDNNIIFSRTVKPTKQTAFRRFFNKILSLGNMLLRKPSFRVEHALWFGATIDIKKAFILLEKVSELHKMLNNQDESWLINEAFIEIVDHVVDLSTYKHVREPFGVARNPGMMAINPKYAELSHENRLRELQNSMCADHCSSVWKVISSFALHHLKNPDSLHTYESKFSKNSFGNKIDDKDFVHNFKMILGGDAVLHYFDNLLPKTMKKDLKAMKYGVSLTSAYSLKLTKIIFSQMQLPYLSQMFYMQAPYFGHFIGKWQKKRQQSRLKEIMSFMTLGSLSAYTLFSAMDITQQAKDIGAGPVASCFTTRMSPPQQICLNSVVNAALSTSTQSAMKCVFSV
modifications: bait human Fc-tagged dimer
B3: 33 (protein)
chain: SSNDKNKINKNNMPLQRGASNLKDINIHNVEKKSNMESVNNNINNAACSKNLNANKVPNVAHTGVNKKGETKNEEVEKEENENEEIEKEEIENEENQQNEEDENEENQQNEEDENEENQQMNVNVDVSAEKKNKELPEEKKELQKNSEKNINKEVIKDSNKDNTFNFHKNINTAFNKNKNIYNNNNNNNNNNKAFIEKKEEAIDMKKTHCSNNNKMCKYNNMNNHMSTNKNNNQIFEESKQNVNKPIYNLKSLGNNAFKNDEKYNENDYKNNHDDDKKKYTDDSNEENIYEERNQKILLIHLLKNIKELLNRQRQNFNNFLSFLSENYQSYEKFYKSQKYQNGKNYIDKLDQQGELKNVAVVTHSFLDMSKAANGKKDKNGVFVKLMNDQNDDGDDTKDGDDTKDEDDHKNEDDHKNEDDHKNEDDHKNEDDHKNGDDNKNGDDHKNGDDNKNGDDDNGKKSHDISDIKNIIDTILQSDDITDEQKKYLEIIKKILDLEEDVLNKEKEQLQLNKNIIEVLMGKSDELRNIAVNLKNGNGDNEASQRVDLAQNIVSNLLNFAVQLKNTGNIVYNNIQGQGELLQSIEKNIDKAENDLKKSTSVNTAFTPKNVPNTEQNDQETQTDDDINDADIDENNNANDKNNCHMYKKNNCHMYKKNNCKKYFLNSHYNNYLCKKQKKYNKNDMGNKQKDNKKFKLNEAMKNHFYNIFVKETVMLKKLYKVLFELF
modifications: bait human Fc-tagged dimer
B4: 80 (protein)
chain: INPATLIQNHLYMYQTNNAINEENIYNMKKFSKLPIAENTRNIRHSTNDLYYEHSLNLEKPNEHFTLHNIKLICQQIYHNQPNQLNLRILAVLLSTSYKQENIANIFQNLCNNGLSCLFTIQLSKNKAFVDQNKIVHLKIIDTDDLKRNKNNNIRHKITVYYICEDLKYKNQKQQESNEFKYVFNYEQLAFLKCENYLTVQVEKLVGINYNKEFHNLNPEYISFYCSQRVICNTHIEDLYKEDDKKRKNYIFYELTYRCVPPKVCSFCGNNAACKLEKLYNKEKEITQFYNNVEYNDAGVFDRLLLNKEEEEERNKASFVANLEYNAINYDIDDMITVGSNTYHILEICKCSKDYVQEGSSCVKKEKDKIYIRYAKK
modifications: bait human Fc-tagged dimer
B5: 75 (protein)
chain: NVVAPKSAEAVHTLTAKLDTENKAHQKYIDIINGVFSENMENFVFSITTSNGFTCSINKLDVIFDNKVTGMQKVFSDENVQYIKEASLEFKNNLLEYMKGVMPSENDFSNVRKEFQKVCVKYFSELRRKFFQIYRDPNNKNQNEDNVDNHMNIEEISQEFFSGFNPFGTMKIRKEQNPDLSQKDSLILNENNNDALTSADQKNNNMVPMENRAFSYSQQSSHVVSFDGHDEHVEQQEQHSGDNTQEDKDQLMDLPFNKDKVFSTFLKNVALLIEGNCAEAQQQAQEQTQEQTEEQEEEQNEKEIESDKQVQKDGEQKENDVQKKQKANAFTIQFSSSLSRKHISTTCNAASGNVFLRKGNKPFEHFNSPNFENMMKGVFGIIQNPFENGQPTFPFFKNINSISGIGNVDIPKNFMNDFLNNGNDQNTPISS
modifications: bait human Fc-tagged dimer
B6: 15 (protein)
chain: MAFFSIFIILNFFMLSLTSSLGNGFLHSSITFSNDFCKGMNLHFLISAEEIDSKFFLNKMLLLILGGSSYMRYSKENYFSVSIYDKKLVYKNIKKIENIQGASYYEQLQSAFKKHIKPSARRTNLYESLKEYYEKYIIGNKNIKKSKNIIIIVKKFTSDDLSEYHENLNRYIKEIRSKDVGIYFFSDDSIYSKNIILNIAESGYNMEVQYPIAHFVSESYRANDLFGVKKFCYQLLHGATCKSYNEWSEWSGPCEFERRQRIIPLKITNIESTNFRSHYDPSCRNVFDYSMSIKEDFRVNCKNSIYECRGICDKGYKFKPYAKSNEIVESYEECNDLPPCTRDQRKNGDHTLYADVILNSLLSESSIQQIRDRDDRALIEKDMP
modifications: bait human Fc-tagged dimer
B7: 34 (protein)
chain: TKKKVSVSEINFDSAVDDVQWCGNNHMTVLVKTVKGRLYRSSDGGKIWTNIAGNLADKENNKADPSSNHMNEMTTVDLIMVNSVNKNIVLIIGNQKNHYISEDSGETFRLLNYQNKINFWQFHSTKTHWALVSSWTEACYSNDDNSGECMQTLSLTKDLGRTFQLIDIYVVQFNWGDKESHLEDTIYYTRHKNRNGHQQRFSGWSKDVDFVATHNFGKSVDVLVKQGNKFLISNGYIFVAKLNDVIKQTVNMMVSTDGGKTFNKANLPENIHEKSYTVLDTSEGSIMLHVNHGTSSEKINTGNVYISDASGLNYALSLPNNIRTSSGECEFDRVLSLDGVYIANFLDVNNEIKDEDLRFQNFKSAIEEDIAPFETNTEKRKKQYNKGKNEDAVRTVISFNKGGEWSYLKAPKVDSRGNKYECGDNCYLHLHGITNYHQYAPFYSIENAVGIIMGTGNVGSHLRYESDEVNTFLSRDGGVTWIEAHKGPYIYEYGDYGGLIVMADDLRKTNQIVFSWNEGQSWFDFELGQFSIDVDNIVAEPNSASVEFLVYGTRNDVGVLYHLDFNALGQPLCKGLWAADSVSSDYETWSPTSGNFNDKCILGRKITYTRRKQTSECFNGKDLKRTVDKKPCECTPEDYECETGFTRKIGSYECKPNDPTLTIEGCTSSSYFYANAYRKVPGDICVNGWVPEKVPVPCPSYAPFNKAAK
modifications: bait human Fc-tagged dimer
B8: 16 (protein)
chain: NNLDKNKNFIQYKNFKKNKAYKYKNNNNNIIIINSHSHSNSHSNSHSHSNSHSNSHSHSNSHSNSHSHSNSHSHSHSNSHSNSHSHSSTQNSLYHDTNQANFLKPTSFFLYKHHVYFNQKYKKDPNILNKLKVPRNHIFHINKCDLNYYIQNYEFFFFFPDYYEYSHLYIRLDKLFYFQRCGCDTNIKKTKKRNQNIFNNMLGMKEKDTYLQNEICDIYWNYLKDDNTYDKYNFAIINYIKNIIKKMYRYLYIYKVFVLKQFYRIVYYNQGIRNFYYMLFSYIYNKGSIIYNYNQMYFKKHRKKQTIIRSKRFMNEHIKEEDVDYNIVKDEKDKSIQSTEQKSYLKNNAIQYFQCFLDKAMENKNAENELDKWIDPQSKSCYCSEEFAEPCTSEDLVDINNINQIMDNAFCEYNNNDNNNNDNNKNNNNNINNIINIYDNNILGDNVKNIFVALSEYKILQCNDKEKKDIIKKEQLYNYCKYGLNIWDNKNMYDYLNCLNVISYNKKDDKTCIRKCENIKKLCNIVAQFYSFEVCKKYYENNKHTEDIYINNFKYFSDHCKYIDPTNRGLVLCKHKNVECVYSQWSEWSTCSKTCIENEYDTNSARTRTRILLNKFEVPSKSCSFIINEKNNLMDINFCSYLPFCNKNNDMKKKDDERIMPFVISIKEIEKLNTLKYLNNDDNDLLNENYKNYESVHKNNECKVTDMYQYEYAISYNEKNKACSCPNNQAPCYFKDIYNSESWKKSLHILCKHNPHINVITADYIIIDCNMAISIKKKEIAVNTYLAMTFNCHSDIFQYIFCAKNIQSIRTN
modifications: bait human Fc-tagged dimer

The target of this assay is FGFR4 ectodomain (Homo sapiens, UniProt P22455). Description: AVEXIS normalised luminescence.
B1 came in with a binding score of 0.776.

The molecule B2 came in with a binding score of 1.17.

B3 registered a binding score of 1.23.

Regarding B4, the binding score worked out at 1.04.

In the case of B5, the binding score was found to be 1.05.

On to B6, for which the binding score came to 0.902.

As to B7, the binding score was found to be 0.648.

Regarding B8, the binding score worked out at 1.5.
